Results on two molecules are retold here after patent US20160168250A1 (Genentech, published 2016).

Test [1] has as its target T1, His-tagged IgD2-D3 of human FGFR3-IIIb (human, UniProt P22607-2 143-374, limits assumed).
T1 construct: domain: IgD2-D3; also called FGFR3-IIIb-His protein; Human FGFR3 ECD IIIb; not shown: His tag
T1 sequence (looked up): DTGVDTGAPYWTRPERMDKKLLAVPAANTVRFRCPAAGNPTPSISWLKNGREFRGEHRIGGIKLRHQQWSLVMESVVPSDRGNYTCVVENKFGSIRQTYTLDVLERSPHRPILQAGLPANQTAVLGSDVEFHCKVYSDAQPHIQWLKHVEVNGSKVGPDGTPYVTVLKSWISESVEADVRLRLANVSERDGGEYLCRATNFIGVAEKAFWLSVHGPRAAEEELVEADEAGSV
Put plainly: BIAcore.

Test [2] addresses T1, His-tagged IgD2-D3 of human FGFR3-IIIb. The experiment in a line: BIAcore; R3Mab on CM5 chip, FGFR3-His injected. On the procedure:
For kinetic measurement, two-fold serial dilutions of FGFR3-IIIb or IIIc-His protein (starting from 67 nM) were injected in PBST buffer at 25° C. with a flow rate of 30 μl/minute. Association rates (Kon, per mol/s) and dissociation rates (Koff, per s) were calculated using a simple one-one Langmuir binding model (BIAcore Evaluation Software version 3.2). The equilibrium dissociation constant (Kd, per mol) was calculated as the ratio of Koff/Kon.

In test [3] the target is T2, FGFR3 on RT112 cells (human, UniProt P22607-2).
T2 construct: full length, on cells; also called WT FGFR3
Put plainly: Scatchard analysis: radioiodinated (125I) R3Mab on RT112 cells in suspension with unlabeled antibody, 2 h at room temperature; mean of two binding experiments. Here is the method:
(§1) FIGS. 23A and 23B: Cell surface expression levels of FGFR3 in myeloma and bladder cancer cells. (FIG. 23A) Cell surface FGFR3 expression in myeloma cells and bladder cancer cells assessed by FACS analysis. Cells were stained with phycoerythin-conjugated mouse mAb against human FGFR3 (FAB766P, R&D Systems) or phycoerythin-conjugated isotype control mouse IgG1(BD Pharmingen). (FIG. 23B) Scatchard analysis of FGFR3 density in myeloma cells and bladder cancer cells. […] After incubation at RT for 2 hours, cells were pelleted by centrifugation and washed twice. Specifically bound ¹²⁵I was determined.

Test [4] addresses T3, FGFR3 on KMS11 cells (human, UniProt P22607).
T3 construct: full length, on cells; also called FGFR3 Y373C
Put plainly: Scatchard analysis: radioiodinated (125I) R3Mab on KMS11 cells in suspension with unlabeled antibody, 2 h at room temperature; mean of two binding experiments. Here is the method:
as §1

Test [5] addresses T4, human FGFR3-IIIb ECD-human Fc chimeric protein (human, UniProt P22607-2 23-377).
T4 construct: extracellular domain; also called FGFR3-Fc chimeric protein (IIIb); not shown: human Fc
T4 sequence (looked up): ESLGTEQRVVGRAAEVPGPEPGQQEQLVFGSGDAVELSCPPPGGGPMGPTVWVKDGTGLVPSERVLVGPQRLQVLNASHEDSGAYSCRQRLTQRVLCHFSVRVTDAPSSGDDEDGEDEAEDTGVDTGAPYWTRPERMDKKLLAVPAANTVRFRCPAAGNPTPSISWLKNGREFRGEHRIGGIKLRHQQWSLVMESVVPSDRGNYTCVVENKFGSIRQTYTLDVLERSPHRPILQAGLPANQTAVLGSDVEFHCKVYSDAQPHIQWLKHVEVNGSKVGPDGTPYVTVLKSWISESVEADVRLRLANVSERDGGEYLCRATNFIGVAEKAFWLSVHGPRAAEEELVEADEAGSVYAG
The experiment in a line: ELISA: blocking of FGF9 binding to captured FGFR3-IIIb-Fc. On the procedure:
(§2) Specific binding was detected using an anti-human Fab antibody. […] Error bars represent standard error of the mean (SEM) and are sometimes smaller than symbols.
(§3) To test the effect of antibodies to FGFR3 on FGF/FGFR3 interaction, FGFR3-Fc chimeric proteins were captured on Maxisorp plate coated with anti-human immunoglobulin Fcγ fragment-specific antibody (Jackson Immunoresearch, West Grove, Pa.). After wash, increasing amount of FGFR3 antibody was added to the plate and incubated for 30 minutes.

Test [6] has as its target T5, FGFR3 on OPM2 cells (human, UniProt P22607).
T5 construct: full length, on cells; also called FGFR3 K650E
Put plainly: Scatchard analysis: radioiodinated (125I) R3Mab on OPM2 cells in suspension with unlabeled antibody, 2 h at room temperature; mean of two binding experiments. Here is the method: as §1

Test [7] deals with T4, human FGFR3-IIIb ECD-human Fc chimeric …. The experiment in a line: ELISA: blocking of FGF1 binding to captured FGFR3-IIIb-Fc. On the procedure: as §2, §3
Test [8] has the same target. Put plainly: direct ELISA: FGFR ECD-human Fc chimeric protein coated on the plate, R3Mab titrated, detection with HRP anti-human Fab.
From the text: as §2
(§4) cDNAs encoding the extracellular domains (ECD) of human FGFR1-IIIb, IIIc, FGFR2-IIIb and IIIc, FGFR3-IIIb and IIIc, and FGFR4 were cloned into pRK-based vector to generate human FGFR-human Fc chimeric proteins. The recombinant proteins were produced by transiently transfecting Chinese hamster ovary (CHO) cells and purified via protein A affinity chromatography. To test binding of antibodies to human FGFRs, Maxisorp 96-well plates (Nunc) were coated overnight at 4° C. with 50 μl of 2 μg/ml of FGFR ECD-human Fc chimeric proteins. After blocking with phosphate-buffered saline (PBS)/3% BSA, FGFR3 antibody was added and incubated at RT for 2 hours. Specifically bound FGFR3 antibody was detected using an HRP-conjugated anti-human Fab and the TMB peroxidase colorigenic substrate (KPL, Gaithersburg, Md.).

The target in test [9] is T6, human FGFR4 ECD-human Fc chimeric protein (human, UniProt P22455 22-369).
T6 construct: extracellular domain; not shown: human Fc
The description is as above.
From the text: as §2, §4

Test [10] has as its target T7, FGFR3 on UMUC-14 cells (human, UniProt P22607-2).
T7 construct: full length, on cells; Same protein as r1, here on intact cells and not in lysates; also called FGFR3^S249C on cells
Put plainly: Scatchard analysis: radioiodinated (125I) R3Mab on UMUC-14 cells in suspension with unlabeled antibody, 2 h at room temperature; mean of two binding experiments. Here is the method: as §1

B1: anti-FGFR3 antibody clone 184.6.58 (antibody, V domains shown)
VH: EVQLVESGGGLVQPGGSLRLSCAASGFTFTSTGISWVRQAPGKGLEWVGRIYPTNGSTNYADSVKGRFTISADTSKNTAYLQMNSLRAEDTAVYYCARTYGIYDLYVDYTEYVMDYWGQGTLVTVSS
VL: DIQMTQSPSSLSASVGDRVTITCRASQDVDISLAWYQQKPGKAPKLLIYSASSLASGVPSRFSGSGSGTDFTLTISSLQPEDFATYYCQQGAGNPYTFGQGTKVEIK
As to B1, the Kd in test [1] came to 0.19 nM.

B2: anti-FGFR3 antibody clone 184.6.1N54S (antibody, V domains shown)
VH: EVQLVESGGGLVQPGGSLRLSCAASGFTFTSTGISWVRQAPGKGLEWVGRIYPTSGSTNYADSVKGRFTISADTSKNTAYLQMNSLRAEDTAVYYCARARTYGIYDLYVDYTEYVMDYWGQGTLV
VL: DIQMTQSPSSLSASVGDRVTITCRASQDVDTSLAWYQQKPGKAPKLLIYSASFLYSGVPSRFSGSGSGTDFTLTISSLQPEDFATYYCQQSTGHPQTFGQGTKVEIKR
notes: also called R3Mab; R3 Mab
Turning to B2, the Kd was found to be 0.111 nM in test [2]; 0.16 nM in test [3]; 0.35 nM in test [4]; 0.64 nM in test [6]; 0.34 nM in test [10]. In [2], this molecule yielded a koff of 0.0002 s⁻¹. Besides, the kon in [2] came out at 1.8e+06 M⁻¹ s⁻¹. The concentration for half-maximal inhibition (IC50) is 1.1 nM in test [5] and 0.3 nM in test [7]. Further, in test [8], the half-maximal effective concentration (EC50 (read off the curve)) is roughly 0.3 nM. Also, the binding result in test [9] is given as “no binding (tested: about 60 nM)”.
